Assay: soluble on expression in E. coli; label from the status in PepcDB or PDB records

Row | Sequence | soluble on expression in E. coli
1 | STFSKAAPSVPSKPSDCNFISNFYSHSRLHHISMWKCELTEFVNTLQRQSNGIFPGREKLKKMKTGRSALVVTDTGDMSVLNSPRHQSCIMHVDMDCFFVSVGIRNRPDLKGKPVAVTSNRGTGRAPLRPGANPQLEWQYYQNKILKGKAADIPDSSLWENPDSAQANGIDSVLSRAEIASCSYEARQLGIKNGMFFGHAKQLCPNLQAVPYDFHAYKEVAQTLYETLASYTHNIEAVSCDEALVDITEILAETKLTPDEFANAVRMEIKDQTKCAASVGIGSNILLARMATRKAKPDGQYHLKPEEVDDFIRGQLVTNLPGVGHSMESKLASLGIKTCGDLQYMTMAKLQKEFGPKTGQMLYRFCRGLDDRPVRTEKERKSVSAEINYGIRFTQPKEAEAFLLSLSEEIQRRLEATGMKGKRLTLKIMVRKPGAPVETAKFGGHGICDNIARTVTLDQATDNAKIIGKAMLNMFHTMKLNISDMRGVGIHVNQLVPTNLNPST | soluble
2 | MSLIKMIALDLDETLLNTDKTISEENATALRQLHEAGIKIVLCTGRPINAIWHYLEQLGLTTDDDYTITFNGALVIQNSTKEALAQSGLSRNDFEPLHAFAAANHYPMDVLDFDQVYPIADLTPSVYEQMLKAPMKFIPTAFADLPDQLFSKAVMATDAAILDQVVAKLTPELTKLYHVVRSQPKILEFLAADMDKAVGLGQLLTHFGWDFSDLMAFGDAENDLGMIKAAGDGVAMQNGQPAVKAAANHQTPVDNNHAGVAAYLQHVFPELLGEGHHHHHH | soluble
3 | MIVHVVKRGETLWQLAQRYGVPLERIVAANELSDPNRLAVGQALVIPVPYRYHTVRTGETLWQIARQYGVAVEAIIQANRITNPSLLYPGTTLFIPARIHTVRSGETLAQIASFYGVTVQQLIEVNDITDPNRIVPGQRLIIPPAKPLIEVNAFTVDQGEKGAEQVREVGRHLTYAAPFAYTIRADGGLNPINDTAFIQAAYAARVVPMMTITNFTYQDPGSRLAQMILADVALQTRLLDNVIQVMRAKGYRTLNVDFENVYPSDRKRYNEFLQRAANRLHAEGYVLSTSLAPKISAEQKGLLYEAHDYPAHGRIADFVVLMTYEWGYRFGPPQAISPVNQIRRVLDYAVTAIPRSKIMMGFQIYARDWVLPHVQGQEAETFSPKEALERAVRYGASIQYDAAAASPFYRYTDEQGRQHEVWFEDARSALAKFELVKEYGLRGISYWVLGYPYPENWVLLEDNFRIRKRG | not soluble
4 | MGSDKIHHHHHHMLTRLEVNCFKNLLGFSVNFGPFNCVAGLNGVGKSNIFDSIKFLSLLADKSIVEAALEVRESDSTDPLDIFWTNGEFRSERLSLAVEMIVPVDVIDDFGRRAKATSTFLRYEVELARDDGERESGSLGLHLVKETLIHINKGEAVDRLRFPMSAAKFRENIVINKRKGAGFISTHQDRDGIVEIHLHQDGGSSGQPQKFPARNAPKTVVSNTNSGVWPTILAARREMQSWRFLSLEPSAMRRSNKIHEEGAVSSGGGRLGAALYKLHRKDPSVYTRVASRLSEIVPTSDIRVDVDQVRQLLTVEVKERSGAFLPARALSDGTLRFLALSIIAEDPDFNGVLCFEEPENGIHPARVGAMLALLKELSVDPHDEVSESNSMRQIVVATHSPVLVSLEEPNDLIFADVVKVKGPNGMPATTIRCKCLRESWRFSDEEGNGIDRASIISYLELPPDRQISLNLKTTGVAINLEATV | not soluble
5 | MGSDKIHHHHHHMSRPAITAIPVFKLYGETTAWPTPDLIHCESIPERSRMHDWEIKPHRHGDLVQLLYVQSGKAMLKVEDRVRKVETASLQVVPALSVHTFRFAEDIQGHILSLAKPLVEQLETTLDSSAMRTARCYELGADSHYVDTLFSAIAREYRQPRAGRDLMLHSLINVLVVWLSRRNSEEAGEQVQTMDRGREHLQVFMHQLETCFREHWSIEQHAQAMGISAAHLNALCRRLCDQSALQIISQRLLLEAKRNLIYTTLTINQVSDSLGFSEPAYFSRFFKRATGQSPREFRQQK | not soluble
6 | MSLVTFSIRIISSDRIFLVAEVKALERVYVIGHKNPDTDSVCSAIGYAHFKNNVEKGKTFIPARSGDLTNESLFVLKYFGMNPPLHIETLEPTVEDLELKNPIFVTPDTSAYDVAMLMESRGIKNVPVVSKEKMIGVVTESNIARVYVRRLKIEPLVIHPVPFDQLVRILKAEVVCDYMKEKTVSGKVHIAVDALHVLLGKIEIGDVVIVGDNEPAQIALLEKGAKLMIVVNNAPVSNRVLEIAKEKNAAVLRVKFDAFSAAKLINLSLPVTLVMSKKFPTVTKKDTLEEVKEIVFTSKIRAAFVEDEKGRLCGVITRTDLLKDVRKKVILVDHNEITQAPEGVEKAEILEIIDHHRLGGLSTLNPVFFYNEPVGSTSTIVAEFFLKNGVKMEREIAGILLSGIVSDTLFFKLSTTTEKDRKMANFLADVAKLDLEKFAKKLLKEGMKIPEDVDPAELLKRDVKVYEMGEESFAVSQIMTSDFSTLLKEKERFMNTLKTLKGEFGVKHFFVLFTNPVEEASLLMMDGDQKLVEKAFNAEKKDGLFLLKGVMSRKKDFVPKIGEVLRREREGHHHHHH | soluble
7 | MAHHHHHHMTVHLLWIINQSGQLIAKSSFTAPENIGELGAKPDLQLTMSSILFSTYGMSQELTPNANPVDSAGMTLVECEEHNIHIYETPTLVKFVLVSDSRTRECNALFRELHSLYVEYVMKNPFHIVDEGGIGQPIRIAAFTGAVKRAVDRYHAAGVSNATRK | not soluble
8 | QFMKPFISEKSSKSLEIPLGFNEYFPAPFPITVDLLDYSGRSWTVRMKKRGEKVFLTVGWENFVKDNNLEDGKYLQFIYDRDRTFYVIIYGHNMCS | not soluble
9 | MAQDWNDKIESAQKMLPLIAQLHNNNNVVVSVFGRLLINVTDIDIVKAHRYSRLATETELSPADTLPVLEALHSINVGPASIDLGRLVELHRSKGGDLTQFLTEELSNVIDTRPA | not soluble
10 | MSLKTLMAVGLAAVMSIPFAANAADYVIDTKGAHASINFKVNHLGYSYIKGRFNKFDGEFSYDPANIAASSVVVNVDTRSLDSNHAERDKHIRSADFIDASKYSTATFKSTEVVDKGNGQLEVKGDLTLHGQTKPIVINAEFIGAGQDPWGGQRSGFAGTTRLELKDFGIQVMGASSYVDMELHVEGVQKEGGSHHHHHH | soluble
11 | MLENRLYKRSDFWKLFSRKYKLTKTIEHMMIDSIDIQENDRILEIGIGNGTVFKSITKKLKKGSLKSIDPSKRKVRQISRANRKNMGNGEVFHGYPEDIPFDDRTFNKVFSLHTVQSCTDIRLALREIYRVLQIDGRFYISIDTNTGEKEKTYIQLLKDQHFRDLSVIRRASCLCIVAVKLEHHHHHH | soluble
12 | MTTRLIVKNLPSTCTEQQLRKFFEKYGQISDASLKYTKEGKFRGFAFVGFLDEGSASNALAKSNQTFFNSKKLTVEECRPFGDANKPRAWSKYAKDSSAYKRTHGEKEEANPGKSDETEEPAPKKQKDDAKFDQFLEAKGVVVEKEVKLSKDKSAEAKKLMAELMDGIGGDTSLSLIFSGLPSSAKGKNIKEWLNPIRVKAMKIARNEDVAAAFVTFNRPPDVRRALQKDGQFLGGFKIGIEKIETPEPEHEVIEEHGASLESRDKEEETVREKILETGRLFLRNLPYATKEDDLQFLFKKYGEVSEVQVVIDKKTGACKGFAIVEFVFPEAAVAAYSALDGYVFKGRMMHILPGDEKRTKEGEEESEVVPDDPDNPLKAEAKKEKKKKSFKEEKDEQKKASAGKTAHSWNALFLGANAIADTLAQRLNVKKSDLLTSDQGESAGVRLALAETRLVRETRDFFLENGVKLDAFSKPAEKRSDTVMLAKNLPAGVESEELQRMFEKFGDCTKVLMPTEGGVSALVIMGNPVDAKKAFRALAYSRFRSQPLYLEWAPYDVMGATAPPAEDKTAEVADKPKLSKREMTYEEKRKERKNRQQGITEEEKDDGEVIEEEEKPKEVEAEDKKKSSKKQSEKEIESGSTLFVKNLAFDTTDGSLEFLFRKRYGDLVKSAQISKKLNPAEPTKPLSMGFGFVQFYTAFDAKTALKDMQGELLDGHSLELKISHRENADKGALKRKEVKQKEQGECTKLLVRNLPFEASVKEVETLFETFGAVKTIRIPKKPGQKQQHRGFGFVDFISADEAHRAFDSLVHSTHLYGRRLVLEWAKDDETVEELREKTAEKFAGNKKGVKKSKAQTEEFQQQLQIADDEKD | not soluble
13 | MAAPAASGLSRQVRSFSTSVVRPFAKLVRPPVQVYGIEGRYATALYSAASKEKKLDQVEKELLRVGQLLKDPKVSLAVLNPYIKRTVKVKSLNDITKREKFSPLTANLMNLLAENGRLGNTQGIISAFSTIMSVHRGEVPCTVTTASPLDDAVLSELKTVLKSFLSPNQILKLEIKTDPSIMGGMIVRIGEKYVDMSAKSKIQKLSKAMREML | soluble
14 | MGSDKIHHHHHHMMKTVNELIKDINSLTSHLHEKDFLLTWEQTPDELKQVLDVAAALKALRAENISTKVFNSGLGISVFRDNSTRTRFSYASALNLLGLAQQDLDEGKSQIAHGETVRETANMISFCADAIGIRDDMYLGAGNAYMREVGAALDDGYKQGVLPQRPALVNLQCDIDHPTQSMADLAWLREHFGSLENLKGKKIAMTWAYSPSYGKPLSVPQGIIGLMTRFGMDVTLAHPEGYDLIPDVVEVAKNNAKASGGSFRQVTSMEEAFKDADIVYPKSWAPYKVMEERTELLRANDHEGLKALEKQCLAQNAQHKDWHCTEEMMELTRDGEALYMHCLPADISGVSCKEGEVTEGVFEKYRIATYKEASWKPYIIAAMILSRKYAKPGALLEQLLKEAQERVK | not soluble
15 | MSKQQEQDTPSFGEIRQRLQAGEDFDLAHRLQEREYEMYYNHNRNVNGTIVGDRKKTREEQIAEDEHAASLRRLGHAERSMSDEEYARQLQEEMDRLDASIQMDKEAQLREDARMAWLLQQESSATPAPSRHSGDLISFEDQPQQSSNTTTSSSCQSANNS | not soluble
16 | MAHHHHHHMQYQRAALVIASPALTQREVEFTKSAWLAGLRPDQRTAQQMREVSVEFPLLSRDVVVVRCGGSVVTAAIATALVEPTPQRPKHGLLHFSVRRLHTERDSPAADGSTQKNLVAFLERLVRTGGVIDTAGLCVLPGQKVWSLTVDVTIMNDEGNCNDAAVWAVIALLMHHRRPELTVRGSSVIVHPPHEREPVPLSVQHTPLPFTFAITMAPTEREKALNHQRALSATGSSSGPQPSSGVGNSIDTASAFAIDGTSPQPLGVVVDPTTAESLAAASSIVVAINAEGQVCTVVKAEGCSIHLKDLNACIEAAGTLAPRVLDLIKVAMEAHDERRKTAMKGQFAWAQKRSGVGKVEQACVKKIKTET | not soluble
17 | MGSDKIHHHHHHAAGSSSSSGSSSPSATLTPKDSQATTVFTTTNPSLTLSKVPNIDFGSNATPNGSTDLSVQAAKVDSDLEVANDGIASGWNVQVMNSAFTDSATNNSLYGAKLSFAAAGVAPANADNASPKPAMSAVSLSGDGQNQLVLSAPVKGGLGIWDTEYALSDFKLSVPAGQLPGSYVSNLTWQLSNAPQ | not soluble
18 | EDAALREEAKGLFEVIPMQAPQLADNNTVTRDKIDLGAMLFFDPRMSKSGVFSCQSCHNVGLGGVDGLETSIGHGWQKGPRNAPTALNAVFNVAQFWDGRAPDLAAQAKGPVQAGVEMNNTPENLVATVQSMPGYVEAFAKAFPGQKDPISFDNFALAVEAFEATLITPNSKFDQWLMGADGAMSADEKAGLKLFIDTGCAACHNGINIGGNGYYPFGVVEKPGAEVLPAGDKGRFAVTATADDEYVFRAGPLRNIALTAPYFHSGKVWDLREAVSVMANSQLGATLDDTQVDQITAFLGTLTGEQPEVVHPILPVRSAQTPRPEHMN | soluble
19 | MAPRVITLSPANTELAFAAGITPVGVSSYSDYPPQAQKIEQVSTWQGMNLERIVALKPDLVIAWRGGNAERQVDQLASLGIKVMWVDATSIEQIANALRQLAPWSPQPDKAEQAAQSLLDQYAQLKAQYADKPKKRVFLQFGINPPFTSGKESIQNQVLEVCGGENIFKDSRVPWPQVSREQVLARSPQAIVITGGPDQIPKIKQYWGEQLKIPVIPLTSDWFERASPRIILAAQQLCNALSQVDLEHHHHHH | soluble

— the DeepSol protein solubility set
